Experimental data from IntAct's records for PubMed 8670882.

Columns and labels:
[1] = target: T1, ste20_yeast STE20 (UniProt Q03497)
T1 sequence: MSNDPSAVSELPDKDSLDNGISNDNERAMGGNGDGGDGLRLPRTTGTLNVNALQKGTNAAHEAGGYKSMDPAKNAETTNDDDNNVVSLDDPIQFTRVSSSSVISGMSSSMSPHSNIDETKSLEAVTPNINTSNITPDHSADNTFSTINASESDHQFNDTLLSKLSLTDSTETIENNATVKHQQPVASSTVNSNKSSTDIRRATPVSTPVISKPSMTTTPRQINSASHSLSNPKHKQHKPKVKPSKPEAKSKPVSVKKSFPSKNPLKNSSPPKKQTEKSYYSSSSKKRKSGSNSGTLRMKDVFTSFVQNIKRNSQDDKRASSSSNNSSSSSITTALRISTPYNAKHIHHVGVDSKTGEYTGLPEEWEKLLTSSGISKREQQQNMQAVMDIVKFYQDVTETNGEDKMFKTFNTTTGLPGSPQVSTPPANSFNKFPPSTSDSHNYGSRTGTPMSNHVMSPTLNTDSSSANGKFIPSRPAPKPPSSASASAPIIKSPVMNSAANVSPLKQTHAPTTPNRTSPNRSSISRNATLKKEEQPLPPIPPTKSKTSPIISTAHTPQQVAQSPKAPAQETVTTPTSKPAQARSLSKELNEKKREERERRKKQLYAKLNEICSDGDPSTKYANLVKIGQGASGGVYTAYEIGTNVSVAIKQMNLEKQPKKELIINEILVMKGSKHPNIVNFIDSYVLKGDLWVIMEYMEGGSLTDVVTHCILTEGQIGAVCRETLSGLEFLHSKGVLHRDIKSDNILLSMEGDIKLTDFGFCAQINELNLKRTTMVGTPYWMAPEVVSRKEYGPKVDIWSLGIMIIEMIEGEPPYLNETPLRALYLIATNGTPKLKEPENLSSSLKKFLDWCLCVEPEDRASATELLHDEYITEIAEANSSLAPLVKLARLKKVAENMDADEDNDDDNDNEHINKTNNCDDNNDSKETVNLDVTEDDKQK

[2] = target: T2, arfp2_human ARFIP2 (UniProt P53365)
T2 sequence: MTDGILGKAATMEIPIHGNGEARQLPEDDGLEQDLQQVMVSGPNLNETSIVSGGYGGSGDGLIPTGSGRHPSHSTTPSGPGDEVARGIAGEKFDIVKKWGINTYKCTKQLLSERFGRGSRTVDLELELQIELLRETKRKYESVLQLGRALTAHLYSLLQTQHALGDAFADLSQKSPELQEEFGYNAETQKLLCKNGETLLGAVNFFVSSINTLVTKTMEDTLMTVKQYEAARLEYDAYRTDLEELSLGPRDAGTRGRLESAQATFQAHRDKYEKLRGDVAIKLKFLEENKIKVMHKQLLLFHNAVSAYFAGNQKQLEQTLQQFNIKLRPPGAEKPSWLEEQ

Substance	effect of a mutation on the interaction [1]	effect of a mutation on the interaction [2]
Ras-related C3 botulinum toxin substrate 1 (Homo sapiens) (from UniProt P63000) G12V	increasing interaction	–
Ras-related C3 botulinum toxin substrate 1 (Homo sapiens) (from UniProt P63000) T35A	–	decreasing interaction
